Measurements taken from patent US20180215825A1 (BEIGENE, published 2018).
Where a chain is given by its changes, count along the chain named.

Assays:
[1] = target: T1, FcγRI extracellular domain, His tag (human, UniProt P12314 16-292); assay: ELISA, FcγR-His coated, preformed immune complex of the mAb
T1 construct: extracellular domain
Procedure: (§1) The extracellular domains of FcγRs were fused to C-terminal His tags as described in previous sections. Recombinant proteins were expressed in 293-F cells by transient transfection and purified using Ni-Sepharose column followed by gel filtration column as described. 2-5 μg/mL of FcγRs were coated on Nunc MaxiSorp ELISA plates (Cat. No. 442404, Nunc, Thermo Fisher) except FcγRIIB and FcγRIIIB, Ni-chelate plates were used (Cat. No. 15242, Pierce, Thermo Fisher). After washing and blocking of the wells, a preformed immune-complex was added to each well and incubated at room temperature for 1-2 hours. […] After washing the plate four times, binding signals were detected by chemiluminescence using Immobilon Chemiluminescence Substrate A/B (Cat. No. WBKLS0500, Millipore).

[2] = target: T2, FcγRIIAH131 extracellular domain, His tag (human, UniProt P12318 34-217); assay: as above
T2 construct: extracellular domain
T2 sequence (looked up): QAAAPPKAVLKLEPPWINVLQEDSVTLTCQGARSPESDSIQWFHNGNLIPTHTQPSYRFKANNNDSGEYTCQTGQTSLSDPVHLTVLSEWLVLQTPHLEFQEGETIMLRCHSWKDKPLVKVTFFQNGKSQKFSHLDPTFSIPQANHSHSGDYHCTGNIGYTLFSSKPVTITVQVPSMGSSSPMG
Procedure: as §1

[3] = target: T3, FcγRIIAR131 extracellular domain, His tag (human, UniProt P12318 34-217); assay: as above
T3 construct: extracellular domain
T3 sequence (looked up): T2 sequence (looked up) with H134R
Procedure: as §1

[4] = target: T4, FcγRIIIAF158 extracellular domain, His tag (human, UniProt P08637 17-208); assay: as above
T4 construct: extracellular domain
T4 sequence (P08637 17-208): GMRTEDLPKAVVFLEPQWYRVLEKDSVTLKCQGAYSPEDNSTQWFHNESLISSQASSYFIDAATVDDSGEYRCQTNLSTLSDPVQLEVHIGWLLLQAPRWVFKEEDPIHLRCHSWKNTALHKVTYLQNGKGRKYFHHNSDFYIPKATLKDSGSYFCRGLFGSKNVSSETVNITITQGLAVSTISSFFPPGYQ
Procedure: as §1

[5] = target: T5, FcγRIIIAV158 extracellular domain, His tag (human, UniProt P08637 17-208); assay: as above
T5 construct: extracellular domain; also called FcγRIIIAV58
T5 sequence (P08637 17-208 F176V limits assumed): as the sequence (P08637 17-208) above, with F160V counted along it
Procedure: as §1

[6] = target: T1, FcγRI extracellular domain, His tag; assay: ELISA, FcγR-His coated, preformed immune complex; normalized to hu333-4A2-IgG1wt
Procedure: as §1

[7] = target: T2, FcγRIIAH131 extracellular domain, His …; assay: as above
Procedure: as §1

[8] = target: T3, FcγRIIAR131 extracellular domain, His …; assay: as above
Procedure: as §1

[9] = target: T4, FcγRIIIAF158 extracellular domain, His …; assay: as above
Procedure: as §1

[10] = target: T5, FcγRIIIAV158 extracellular domain, His …; assay: as above
Procedure: as §1

T1 sequence (P12314 16-292): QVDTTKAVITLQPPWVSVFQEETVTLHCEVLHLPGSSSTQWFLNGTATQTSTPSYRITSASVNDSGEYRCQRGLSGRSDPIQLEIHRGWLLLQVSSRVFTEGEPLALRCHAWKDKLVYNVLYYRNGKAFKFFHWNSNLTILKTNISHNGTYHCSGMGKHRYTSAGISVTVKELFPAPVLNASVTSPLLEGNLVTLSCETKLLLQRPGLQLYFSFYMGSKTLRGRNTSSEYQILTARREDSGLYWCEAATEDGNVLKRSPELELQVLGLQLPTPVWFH

Chemiluminescence [1]: 42700
Chemiluminescence [2]: 54600
Chemiluminescence [3]: 50200
Chemiluminescence [4]: 36400
Chemiluminescence [5]: 57800
Relative binding [6]: 100%
Relative binding [7]: 100%
Relative binding [8]: 100%
Relative binding [9]: 100%
Relative binding [10]: 100%
B1: hu333-4A2-IgG1wt (antibody)
heavy: not shown
VL: DIQMTQSPSSLSASVGDRVTITCKASQDVGIVVAWYQQKPGKAPKLLIYWASIRHTGVPSRFSGSGSGTEFTLTISSLQPDDFATYYCQQYSNYPLYTFGQGTKVEIK
notes: light chain constant region (kappa) not tied to an entry for this form
